Series [1] deals with MazE-MazF(His)6 complex (Escherichia coli, UniProt P0AE72;P0AE70 SEQ:1-82,SEQ:1-111). The experiment in a line: EMSA; 1 uM complex. The conditions noted are these: tags: C-terminal His6 on MazF; chain copies: MazF2-MazE2-MazF2 (stated); label: 32P. In general terms: Mobility shift assays separate free from complexed probe on a gel.
In series [2] the target is (His)6MazE (Escherichia coli, UniProt P0AE72 SEQ:1-82). The experiment in a line: EMSA; discrete shift at 2 uM or higher; smear at 0.4-1.0 uM; 5 mM MgCl2, poly(dI-dC), 4 C. The note with it: tags: N-terminal His6; chain copies: 2 (inferred); label: 32P.
Series [3] deals with MazF (Escherichia coli, UniProt P0AE70 SEQ:1-111). The experiment in a line: EMSA; no binding up to 20 uM. The note with it: tags: untagged; chain copies: 2; label: 32P.
Series [4] addresses (His)6MazE(R16A) (Escherichia coli, UniProt P0AE72 SEQ:1-82, R16A). As to the kind of experiment: EMSA; 4 uM. The conditions noted are these: tags: N-terminal His6; chain copies: 2; label: 32P.
Series [5] addresses (His)6MazE(S12A) (Escherichia coli, UniProt P0AE72 SEQ:1-82, S12A). The experiment in a line: EMSA; 4 uM. The note with it: tags: N-terminal His6; chain copies: 2; label: 32P.
The target of series [6] is (His)6MazE(R8A) (Escherichia coli, UniProt P0AE72 SEQ:1-82, R8A). The experiment in a line: EMSA; 4 uM. The conditions noted are these: tags: N-terminal His6; chain copies: 2; label: 32P.
For series [7], the target named is (His)6MazE(K7A) (Escherichia coli, UniProt P0AE72 SEQ:1-82, K7A). The experiment in a line: EMSA; 4 uM. The conditions noted are these: tags: N-terminal His6; chain copies: 2; label: 32P.
The target in series [8] is (His)6MazE(F53A) (Escherichia coli, UniProt P0AE72 SEQ:1-82, F53A). As to the kind of experiment: EMSA; data not shown. The note with it: tags: N-terminal His6; chain copies: 2; label: 32P.
For series [9], the target named is (His)6MazE(R48A) (Escherichia coli, UniProt P0AE72 SEQ:1-82, R48A). The experiment in a line: EMSA; data not shown. The note with it: tags: N-terminal His6; chain copies: 2; label: 32P.
Series [10] addresses (His)6MazE(E57Q) (Escherichia coli, UniProt P0AE72 SEQ:1-82, E57Q). As to the kind of experiment: EMSA; data not shown. The conditions noted are these: tags: N-terminal His6; chain copies: 2; label: 32P.
Series [11] addresses (His)6MazE-MazF complex (Escherichia coli, UniProt P0AE72;P0AE70 SEQ:1-82,SEQ:1-111). The experiment in a line: EMSA; shift at 0.2 uM MazE, MazE:MazF 1:2; more than ten-fold enhancement over MazE. The note with it: tags: N-terminal His6 on MazE; chain copies: MazF2-MazE2-MazF2 (stated); label: 32P.

B1: mazEF promoter 50-bp (dsDNA)
DNA 1: GCTCGTATCTACAATGTAGATTGATATATACTGTATCTACATATGATAGC
DNA 2: GCTATCATATGTAGATACAGTATATATCAATCTACATTGTAGATACGAGC
As for B1, the binding result in series [1] is “binds”; in series [2], “binds”; in series [3], “no binding”; in series [4] it was “no binding”; in series [5], “no binding”; in series [6], “no binding”. Further, the binding result is “no binding” in series [7]; “binds” in [8]; “binds” in series [9]; “binds” in [10]; “binds” in series [11].

The values above are taken from patent US20080058275, “Rna Interferases And Methods Of Use Thereof” (published 2008).
